From patent US20220064257A1 (published 2022)
Numbering of substitutions follows the chain as printed. Values joined by “and” are separate entries in the source; they are usually repeats but may differ in a detail not shown here. Equal values may be shown once.

Tests used:
[1] = molecular target: T1, MYD88 L265P peptide on HLA-B*07:02 (human); assay: printed as KD (TCR affinity/avidity): non-linear curve analysis of the IFNγ ELISA response; TCR-transduced CD8+ T cells from healthy donors with K562 cells transduced with HLA*B07:02 and loaded with titrated peptide; full-length, on cells
T1 peptide: RPIPIKYKAM

[2] = molecular target: T2, human self peptide predicted by Expitope for TCR2304 (source protein not named) peptide on HLA-B*07:02 (human); assay: cytokine release
T2 peptide: LPIHITYAAM

[3] = molecular target: T3, human self peptide predicted by Expitope for TCR2304 (source protein not named) peptide on HLA-B*07:02 (human); assay: cytokine release
T3 peptide: RPRMIGYGAI

[4] = molecular target: T4, human self peptide predicted by Expitope for TCR2304 (source protein not named) peptide on HLA-B*07:02 (human); assay: cytokine release
T4 peptide: RPAMIPYWAL

[5] = molecular target: T5, human self peptide predicted by Expitope for TCR2304 (source protein not named) peptide on HLA-B*07:02 (human); assay: cytokine release
T5 peptide: VPIIIKYLMF

[6] = molecular target: T6, human self peptide predicted by Expitope for TCR2304 (source protein not named) peptide on HLA-B*07:02 (human); assay: cytokine release
T6 peptide: RPVPISYHQL

[7] = molecular target: T7, human self peptide predicted by Expitope for TCR2304 (source protein not named) peptide on HLA-B*07:02 (human); assay: cytokine release
T7 peptide: KPIRIGYKIW

[8] = molecular target: T8, human self peptide predicted by Expitope for TCR2304 (source protein not named) peptide on HLA-B*07:02 (human); assay: cytokine release
T8 peptide: RPDLIDYKSL

[9] = molecular target: T9, human self peptide predicted by Expitope for TCR2304 (source protein not named) peptide on HLA-B*07:02 (human); assay: cytokine release
T9 peptide: LPLYISYVAM

[10] = molecular target: T10, human self peptide predicted by Expitope for TCR2304 (source protein not named) peptide on HLA-B*07:02 (human); assay: cytokine release
T10 peptide: LPTRIAYYAM

[11] = molecular target: T11, human self peptide predicted by Expitope for TCR2304 (source protein not named) peptide on HLA-B*07:02 (human); assay: cytokine release
T11 peptide: TPPKIPYKAI

[12] = molecular target: T12, human self peptide predicted by Expitope for TCR2304 (source protein not named) peptide on HLA-B*07:02 (human); assay: cytokine release
T12 peptide: LPQSIVYKYM

[13] = molecular target: T13, human self peptide predicted by Expitope for TCR2304 (source protein not named) peptide on HLA-B*07:02 (human); assay: cytokine release
T13 peptide: RPQPIYYGFS

[14] = molecular target: T14, MYD88 L265P epitope of SEQ ID NO: 2 with alanine at position 2 (alanine scan); residues derived from the … (human); assay: cytokine release
T14 peptide: RAIPIKYKAM

B1: TCR2219 (TCR, V domains shown)
Valpha: QQPVQSPQAVILREGEDAVINCSSSKALYSVHWYRQKHGEAPVFLMILLKGGEQMRHEKIFASFNEKKQQSSLYLTASQLSYSGTYFCGTAHLRAGSYQLTFGKGTKLSVIP
Vbeta: EAQVTQNPRYLITVTGKKLTVTCSQNMNHEYMSWYRQDPGLGLRQIYYSMNVEVTDKGDVPEGYKVSRKEKRNFPLILESPSPNQTSLYFCASSSSSGGAFNEQFFGPGTRLTVL
EC50 of peptide [1]: 0.123 µg/ml and 100 nM

B2: TCR2716 (TCR, V domains shown)
Valpha: AQTVTQSQPEMSVQEAETVTLSCTYDTSENNYYLFWYKQPPSRQMILVIRQEAYKQQNATENRFSVNFQKAAKSFSLKISDSQLGDTAMYFCAFMKPYSGGGADGLTFGKGTHLIIQP
Vbeta: AAGVIQSPRHLIKEKRETATLKCYPIPRHDTVYWYQQGPGQDPQFLISFYEKMQSDKGSIPDRFSAQQFSDYHSELNMSSLELGDSALYFCASSLAGTTVYNEQFFGPGTRLTVL
EC50 of peptide [1]: 0.099 µg/ml and 81 nM

B3: TCR2705 (TCR, V domains shown)
Valpha: QKEVEQDPGPLSVPEGAIVSLNCTYSNSAFQYFMWYRQYSRKGPELLMYTYSSGNKEDGRFTAQVDKSSKYISLFIRDSQPSDSATYLCAMSGTGGFKTIFGAGTRLFVKA
Vbeta: ETGVTQTPRHLVMGMTNKKSLKCEQHLGHNAMYWYKQSAKKPLELMFVYSLEERVENNSVPSRFSPECPNSSHLFLHLHTLQPEDSALYLCASSQDRPNYYGYTFGSGTRLTVV
EC50 of peptide [1]: 0.02 µg/ml and 16 nM

B4: TCR1605 (TCR, V domains shown)
Valpha: GESVGLHLPTLSVQEGDNSIINCAYSNSASDYFIWYKQESGKGPQFIIDIRSNMDKRQGQRVTVLLNKTVKHLSLQIAATQPGDSAVYFCAEGTGSARQLTFGSGTQLTVLP
Vbeta: DVKVTQSSRYLVKRTGEKVFLECVQDMDHENMFWYRQDPGLGLRLIYFSYDVKMKEKGDIPEGYSVSREKKERFSLILESASTNQTSMYLCASGPFRDSVLTLVANVLTFGAGSRLTVL
EC50 of peptide [1]: 0.009 µg/ml and 7.4 nM

B5: TCR2207 (TCR, V domains shown)
Valpha: GQNIDQPTEMTATEGAIVQINCTYQTSGFNGLFWYQQHAGEAPTFLSYNVLDGLEEKGRFSSFLSRSKGYSYLLLKELQMKDSASYLCAVDVGYSTLTFGKGTMLLVSP
Vbeta: GAVVSQHPSWVICKSGTSVKIECRSLDFQATTMFWYRQFPKQSLMLMATSNEGSKATYEQGVEKDKFLINHASLTLSTLTVTSAHPEDSSFYICSARDRSGTLGGELFFGEGSRLTVL
EC50 of peptide [1]: 0.003 µg/ml and 2.4 nM

B6: TCR1610 (TCR, V domains shown)
Valpha: KQEVTQIPAALSVPEGENLVLNCSFTDSAIYNLQWFRQDPGKGLTSLLLIQSSQREQTSGRLNASLDKSSGRSTLYIAASQPGDSATYLCAPLGGGYNKLIFGAGTRLAVHP
Vbeta: NAGVTQTPKFRILKIGQSMTLQCAQDMNHNYMYWYRQDPGMGLKLIYYSVGAGITDKGEVPNGYNVSRSTTEDFPLRLELAAPSQTSVYFCASRLPTTDEKLFFGSGTQLSVL
EC50 of peptide [1]: 0.009 µg/ml and 7.4 nM

B7: TCR2202 (TCR, V domains shown)
Valpha: LAKTTQPISMDSYEGQEVNITCSHNNIATNDYITWYQQFPSQGPRFIIQGYKTKVTNEVASLFIPADRKSSTLSLPRVSLSDTAVYYCLSLSDSNYQLIWGAGTKLIIKP
Vbeta: DSGVTQTPKHLITATGQRVTLRCSPRSGDLSVYWYQQSLDQGLQFLIQYYNGEERAKGNILERFSAQQFPDLHSELNLSSLELGDSALYFCASSVGQGSYEQYFGPGTRLTVT
EC50 of peptide [1]: 0.033 µg/ml and 27 nM

B8: TCR2719 (TCR, V domains shown)
Valpha: B7 Valpha with S90V, L91G, S92A
Vbeta: B7 Vbeta with V95P, Q97G, S99A
EC50 of peptide [1]: 0.024 µg/ml and 19 nM

B9: TCR2205 (TCR, V domains shown)
Valpha: LAKTTQPISMDSYEGQEVNITCSHNNIATNDYITWYQQFPSQGPRFIIQGYKTKVTNEVASLFIPADRKSSTLSLPRVSLSDTAVYYCLVGRDGGSYIPTFGRGTSLIVHP
Vbeta: B7 Vbeta with Q48H, V95A, S99A
EC50 of peptide [1]: 0.004 µg/ml and 3.2 nM

B10: TCR2304 (TCR, V domains shown)
Valpha: GQNIDQPTEMTATEGAIVQINCTYQTSGFNGLFWYQQHAGEAPTFLSYNVLDGLEEKGRFSSFLSRSKGYSYLLLKELQMKDSASYLCAVRASGTYKYIFGTGTRLKVLA
Vbeta: DAGVIQSPRHEVTEMGQEVTLRCKPISGHNSLFWYRQTMMRGLELLIYFNNNVPIDDSGMPEDRFSAKMPNASFSTLKIQPSEPRDSAVYFCASQDSYEQYFGPGTRLTVT
binding result [2]: no recognition
binding result [3]: no recognition
binding result [4]: no recognition
binding result [5]: no recognition
binding result [6]: no recognition
binding result [7]: no recognition
binding result [8]: no recognition
binding result [9]: no recognition
binding result [10]: no recognition
binding result [11]: no recognition
binding result [12]: no recognition
binding result [13]: no recognition
binding result [14]: no recognition
EC50 of peptide [1]: 0.003 µg/ml and 2.4 nM

B11: TCR1336 (TCR, V domains shown)
Valpha: GENVEQHPSTLSVQEGDSAVIKCTYSDSASNYFPWYKQELGKRPQLIIDIRSNVGEKKDQRIAVTLNKTAKHFSLHITETQPEDSAVYFCAASGRYDYKLSFGAGTTVTVRA
Vbeta: DAMVIQNPRYQVTQFGKPVTLSCSQTLNHNVMYWYQQKSSQAPKLLFHYYDKDFNNEADTPDNFQSRRPNTSFCFLDIRSPGLGDAAMYLCATASDLQGDRSTEAFFGQGTRLTVV
EC50 of peptide [1]: 0.387 µg/ml and 310 nM

B12: TCR2709 (TCR, V domains shown)
Valpha: DAKTTQPNSMESNEEEPVHLPCNHSTISGTDYIHWYRQLPSQGPEYVIHGLTSNVNNRMASLAIAEDRKSSTLILHRATLRDAAVYYCILRDRYGGSQGNLIFGKGTKLSVKP
Vbeta: NAGVTQTPKFRVLKTGQSMTLLCAQDMNHEYMYWYRQDPGMGLRLIHYSVGEGTTAKGEVPDGYNVSRLKKQNFLLGLESAAPSQTSVYFCASSYWPTTGESTDTQYFGPGTRLTVL
EC50 of peptide [1]: 0.102 µg/ml and 83 nM
